# Measurements as given in patent publication US9200265B2, “Anti-cocaine compositions and treatment” (priority 2006, dated 2015).
# Where two headings read alike, the source gives them in different places.
# B1: CocE: wild-type cocaine esterase of Rhodococcus sp. MB 1, SEQ ID NO: 1, Accession No. AF173165 (protein)
# chain: MVDGNYSVASNVMVPMRDGVRLAVDLYRPDADGPVPVLLVRNPYDKFDVFAWSTQSTNWLEFVRDGYAVVIQDTRGLFASEGEFVPHVDDEADAEDTLSWILEQAWCDGNVGMFGVSYLGVTQWQAAVSGVGGLKAIAPSMASADLYRAPWYGPGGALSVEALLGWSALIGTGLITSRSDARPEDAADFVQLAAILNDVAGAASVTPLAEQPLLGRLIPWVIDQVVDHPDNDESWQSISLFERLGGLATPALITAGWYDGFVGESLRTFVAVKDNADARLVVGPWSHSNLTGRNADRKFGIAATYPIQEATTMHKAFFDRHLRGETDALAGVPKVRLFVMGIDEWRDETDWPLPDTAYTPFYLGGSGAANTSTGGGTLSTSISGTESADTYLYDPADPVPSLGGTLLFHNGDNGPADQRPIHDRDDVLCYSTEVLTDPVEVTGTVSARLFVSSSAVDTDFTAKLVDVFPDGRAIALCDGIVRMRYRETLVNPTLIEAGEIYEVAIDMLATSNVFLPGHRIMVQVSSSNFPKYDRNSNTGGVIAREQLEEMCTAVNRIHRGPEHPSHIVLPIIKR
# modifications: Rhodococcus sp. MB1
# Assays:
# [1] = Cocaine spectrophotometric assay (240 nm), Michaelis-Menten kinetics
# [2] = test system: WIN 35065-2 induced toxicity; assay: WIN 35065-2 induced lethality in rats; details: 1.0 mg CocE i.v. one minute after 560 mg/kg WIN-35065-2 i.p.
# [3] = Decay of CocE activity in plasma at 37° C. or after intravenous administration into a mouse; assay type: in vitro ADME; details: incubation in plasma at 37° C., or after intravenous administration into a mouse
# [4] = Low-UV CD spectra melt with CCA deconvolution; assay type: physicochemical; details: for #3 formation: accumulation of the fully melted protein; for #1 melt: initial spectra melts, 0.2 mg/ml; for #2 melt: melt of the intermediate state
# Procedure: Low-UV CD spectra data were obtained using an Aviv Spectropolarimeter Mode 400, with the help of Norma Greenfield, UMDNJ, using a 5-cell holder and 0.2 mg/ml protein concentrations. Raw data values obtained were blanked on control PBS, smoothed, and deconvoluted using the CCA algorithm as described by A. Perczel, K. Park, and G. D. Fasman, [Analysis of the circular dichroism spectrum of proteins using the convex constraint algorithm: a practical guide. Analytical Biochemistry 203, 83-93 (1992).] This algorithm finds the minimum number of curves needed to reconstruct a data set, and expresses the percentage each curve contributes to the data set as a function of temperature.
# Below is presented a low UV CCA denconvolution analysis of CocE WT and 4 mutants, obtained in a single CD spectra melt using a 5-cell holder. The experiment was performed over the period of 8 hours, from 0-80° C.
# Temperature dependent melting was observed between the wavelengths tested (200-250 nm), and the smoothed spectra for each mutant are shown in FIG. 29. […] Dose response analysis was used to approximate the temperature at which the initial spectra melts (1), the formation and melt of the intermediate state (2), and the accumulation of the fully melted protein (3).
# [5] = cocaethylene; cited from earlier work
# [6] = Half-life of CocE in rat plasma; assay type: in vitro ADME
# Procedure: CocE's protective effects were eliminated when rats were treated 100 min prior to cocaine. This time-dependent effect is most likely due to the thermal deactivation of the enzyme in vivo.
# [7] = test system: cocaine-induced lethality; assay: Rodent model of acute cocaine toxicity (convulsions and lethality) in rats; details: for protection against cocaine-induced lethality: one minute before 180 mg/kg cocaine
# [8] = purified wild-type, cocaine, PBS pH 7.4
# [9] = 1.0 mg i.v. one minute after cocaine i.p., rats
molecule,measurement,setting,value
B1,Km,[1]; 40 min @ 37° C.,12.3 µM
same,Km,[1]; no preincubation,71.8 µM
same,Kcat,[1]; [8],approx. 500 min^−1
same,Km,[1]; [8],~2 µM
same,lethal effect of WIN 35065-2 under treatment with CocE,[2],not overcome
same,decay of CocE activity,[3],> 50%
same,#3 formation,[4],59 °C
same,#3 formation,[4]; listed as WT,59.86 °C
same,#2 formation,[4]; formation of the intermediate state,34.57 °C
same,#1 melt,[4],37 °C
same,#1 melt,[4]; listed as WT,37.04 °C
same,#2 melt,[4],50 °C
same,#2 melt,[4]; listed as WT,50.98 °C
same,Kcat,[5],9.4 s⁻¹
same,Km,[5],1.6 µM
same,half-life,[6],about 10 minutes
same,protection against cocaine-induced lethality,[7]; 0.1 mg,no protection
same,lethality,"[7]; 0.32 mg i.v. one minute after 1 g/kg cocaine i.p., rats",100%
same,rats saved,[7]; 1 mg CocE 1 minute before cocaine (100 mg/kg),100%
same,rats survived,[7]; 1 mg CocE 30 minutes before cocaine (100 mg/kg),66%
same,protective effects,[7]; 1 mg CocE 100 min prior to cocaine,eliminated
same,rats survived,[7]; 1 mg CocE '1 minutes' before cocaine as printed (100 mg/kg),32%
same,time after the LD100 dose of cocaine at which the enzyme provided protection,"[7]; 1 mg CocE, 100 mg/kg cocaine",up to 6 minutes
same,cocaine dose required to surmount the protective properties,[7]; [9],1000 mg/kg
same,shift in the cocaine-toxicity dose effect curve,[7]; [9],ten-fold shift
same,protection against cocaine-induced lethality,[7]; 1 mg,100%
same,duration of anti-cocaine effect,[7]; preliminary studies in rats,more than 30 minutes
